# Measurements: paper PMC4623810
# B1: SHP2/SH2 (recombinant N-terminal SHP2 fragment containing two SH2 domains, analyte of the SPR) (domain or fragment)
# chain: MTSRRWFHPNITGVEAENLLLTRGVDGSFLARPSKSNPGDFTLSVRRNGAVTHIKIQNTGDYYDLYGGEKFATLAELVQYYMEHHGQLKEKNGDVIELKYPLNCADPTSERWFHGHLSGKEAEKLLTEKGKHGSFLVRESQSHPGDFVLSVRTGDDKGESNDGKSKVTHVMIRCQELKYDVGGGERFDSLTDLVEHYKKNPMVETLGTVLQLKQPLNTTR
# B2: full-length SHP2 (recombinant) (enzyme)
# chain: MTSRRWFHPNITGVEAENLLLTRGVDGSFLARPSKSNPGDFTLSVRRNGAVTHIKIQNTGDYYDLYGGEKFATLAELVQYYMEHHGQLKEKNGDVIELKYPLNCADPTSERWFHGHLSGKEAEKLLTEKGKHGSFLVRESQSHPGDFVLSVRTGDDKGESNDGKSKVTHVMIRCQELKYDVGGGERFDSLTDLVEHYKKNPMVETLGTVLQLKQPLNTTRINAAEIESRVRELSKLAETTDKVKQGFWEEFETLQQQECKLLYSRKEGQRQENKNKNRYKNILPFDHTRVVLHDGDPNEPVSDYINANIIMPEFETKCNNSKPKKSYIATQGCLQNTVNDFWRMVFQENSRVIVMTTKEVERGKSKCVKYWPDEYALKEYGVMRVRNVKESAAHDYTLRELKLSKVGQGNTERTVWQYHFRTWPDHGVPSDPGGVLDFLEEVHHKQESIMDAGPVVVHCSAGIGRTGTFIVIDILIDIIREKGVDCDIDVPKTIQMVRSQRSGMVQTEAQYRFIYMAVQHYIETLQRRIEEEQKSKRKGHEYTNIKYSLADQTSGDQSPLPPCTPTPPCAEMREDSARVYENVGLMQQQKSFR
# What was measured:
# Assay in all cases: SPR; Biacore X100; CagA immobilised on CM5 chip by amine coupling, SHP2 or SHP2/SH2 as analyte; KD from Scatchard plots; three independent measurements
# [1] = molecular target: pY-CagA(C2)-His (tyrosine-phosphorylated Western CagA with two EPIYA-C segments) (Helicobacter pylori)
# [2] = molecular target: pY-CagA(C8)-His (tyrosine-phosphorylated Western CagA with eight EPIYA-C segments) (Helicobacter pylori)
# [3] = molecular target: pY-CagA(C5)-His (tyrosine-phosphorylated Western CagA with five EPIYA-C segments) (Helicobacter pylori)
# [4] = molecular target: pY-CagA(C3)-His (tyrosine-phosphorylated Western CagA with three EPIYA-C segments) (Helicobacter pylori)
# [5] = molecular target: pY-CagA(C1)-His (tyrosine-phosphorylated Western CagA with one EPIYA-C segment) (Helicobacter pylori)
Binder,Kd [1] [nM],Kd [2] [nM],Kd [3] [nM],Kd [4] [nM],Kd [5] [nM]
B1,208,40.1,77.8,123,24100
B2,369,,,,
